Results as given in patent US20030049605A1 (published 2003).

B1: gpIII/env1 phage (ecotropic Moloney MuLV envelope residues 34-468 displayed as a fusion with M13 gpIII) (other)
chain: ASPGSSPHQVYNITWEVTNGDRETVWATSGNHPLWTWWPDLTPDLCMLAHHGPSYWGLEYQSPFSSPPGPPCCSGGSSPGCSRDCEEPLTSLTPRCNTAWNRLKLDQTTHKSNEGFYVCPGPHRPRESKSCGGPDSFYCAYWGCETTGRAYWKPSSSWDFITVNNNLTSDQAVQVCKDNKWCNPLVIRFTDAGRRVTSWTTGHYWGLRLYVSGQDPGLTFGIRLRYQNLGPRVPIGPNPVLADQQPLSKPKPVKSPSVTKPPSGTPLSPTQLPPAGTENRLLNLVDGAYQALNLTSPDKTQECWLCLVAGPPYYEGVAVLGTYSNHTSAPANCSVASQHKLTLSEVTGQGLCIGAVPKTHQALCNTTQTSSRGSYYLVAPTGTMWACSTGLTPCISTTILNLTTDYCVLVELWPRVTYHSPSYVYGLFERSNRHKTSGGGGSPFVCEYQGQSSDLPQPPVNAGGGSGGGSGGGSEGGGSEGGGSEGGGSEGGGSGGGSGSGDFDYEKMANANKGAMTENADENALQSDAKGKLDSVATDYGAAIDGFIGDVSGLANGNGATGDFAGSNSQMAQVGDGDNSPLMNNFRQYLPSLPQSVECRPFVFSAGKPYEFSIDCDKINLFRGVFAFLLYVATFMYVFSTFANILRNKES
notes: Tested as whole phage particles displaying the fusion; also called construct 1
B2: gpIII/env2 phage (ecotropic Moloney MuLV envelope residues 34-308 displayed as a fusion with M13 gpIII) (other)
chain: ASPGSSPHQVYNITWEVTNGDRETVWATSGNHPLWTWWPDLTPDLCMLAHHGPSYWGLEYQSPFSSPPGPPCCSGGSSPGCSRDCEEPLTSLTPRCNTAWNRLKLDQTTHKSNEGFYVCPGPHRPRESKSCGGPDSFYCAYWGCETTGRAYWKPSSSWDFITVNNNLTSDQAVQVCKDNKWCNPLVIRFTDAGRRVTSWTTGHYWGLRLYVSGQDPGLTFGIRLRYQNLGPRVPIGPNPVLADQQPLSKPKPVKSPSVTKPPSGTPLSPTQLPPATSGGGGS
notes: range 34-308; Tested as whole phage particles. pelB leader left out; also called construct 2
B3: gpIII/env3 phage (ecotropic Moloney MuLV envelope residues 34-266 displayed as a fusion with M13 gpIII) (other)
chain: ASPGSSPHQVYNITWEVTNGDRETVWATSGNHPLWTWWPDLTPDLCMLAHHGPSYWGLEYQSPFSSPPGPPCCSGGSSPGCSRDCEEPLTSLTPRCNTAWNRLKLDQTTHKSNEGFYVCPGPHRPRESKSCGGPDSFYCAYWGCETTGRAYWKPSSSWDFITVNNNLTSDQAVQVCKDNKWCNPLVIRFTDAGRRVTSWTTGHYWGLRLYVSGQDPGLTFGIRLRYQNLGPRVTSGGGGS
notes: range 34-266; Tested as whole phage particles. pelB leader left out; also called construct 3

target: T1, mCAT1, ecotropic retroviral receptor (cationic amino acid transporter), expressed on human 911 cells … (mouse, UniProt Q09143 1-622); assay: phage binding to cells, elution with triethylamine, titering (cfu)
T1 construct: whole, on cells; also called mATRC1; 911-mCAT1-3H7
T1 sequence (Q09143 whole entry): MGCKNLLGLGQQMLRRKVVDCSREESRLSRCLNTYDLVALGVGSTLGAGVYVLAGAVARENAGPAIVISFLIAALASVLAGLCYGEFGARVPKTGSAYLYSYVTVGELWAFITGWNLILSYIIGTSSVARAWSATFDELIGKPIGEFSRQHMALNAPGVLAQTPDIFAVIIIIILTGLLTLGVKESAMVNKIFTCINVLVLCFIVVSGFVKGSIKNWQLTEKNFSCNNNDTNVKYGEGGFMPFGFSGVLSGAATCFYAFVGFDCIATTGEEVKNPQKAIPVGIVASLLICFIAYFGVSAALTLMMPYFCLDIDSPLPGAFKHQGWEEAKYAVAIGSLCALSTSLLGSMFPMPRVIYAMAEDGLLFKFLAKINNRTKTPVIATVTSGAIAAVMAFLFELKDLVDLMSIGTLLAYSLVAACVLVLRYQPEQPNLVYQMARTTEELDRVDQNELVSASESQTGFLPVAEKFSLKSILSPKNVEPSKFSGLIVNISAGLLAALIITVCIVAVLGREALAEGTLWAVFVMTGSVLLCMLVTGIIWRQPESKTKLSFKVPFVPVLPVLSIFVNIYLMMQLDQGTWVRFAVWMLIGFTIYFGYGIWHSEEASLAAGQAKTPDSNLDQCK

Q: For B1, which “times more eluted phage from 911-mCAT1 cell line as compared to 911-pcDNA3 cell line” value is on record?
A: The value was 11 times.

Q: How did the “times more eluted phage from 911-mCAT1 cell line as compared to 911-pcDNA3 cell line” value turn out when B2 was run?
A: Its value is 97 times.

Q: B3 was tested. Which “times more eluted phage from 911-mCAT1 cell line as compared to 911-pcDNA3 cell line” value did it give?
A: Its value is 26 times.
